From US11324837B2, “Hybrid membrane-coated nanoparticle composites and methods of making and using the same” (Portland State University, priority 2016, dated 2022)

Target: T1, TAMRA-Aβ1-42 (Homo sapiens, UniProt P05067)
T1 construct: fluorophore-labeled Aβ (TAMRA-Aβ1-42)
Assay: Fluorescence anisotropy of Aβ binding to AuNP surface
Conditions: intrinsic, free peptide
Description: Fluorescence anisotropy also confirmed Aβ binding to AuNP surface. This technique reports on the change in the molecular rotation of the dye attached to the free TAMRA-Aβ1-42 peptide and when it binds to something larger than itself under polarized light. The steady-state anisotropy (r) is derived from the following equation in which r=(IVV−GIVH)/(IVV+2GIVH), where IVV and IVH are the fluorescence intensities, the subscripts indicate the orientation of the excitation and emission polarizer's, and G=IHV/IHH is the wavelength dependent sensitivity of the instrument. In a typical experiment the intrinsic anisotropy of TAMRA-Aβ1-42 (ravg=0.12) increases in the presence of Au-SOA-PC-HT (ravg=0.35) (FIG. 18). The resulting change in anisotropy (Δr=0.23) is due to a large change in the hydrodynamic radius (size) of the small TAMRA-Aβ1-42 when it binds to the much larger Au-SOA-PC-HT nanoparticles. […] Note that Cu^II pre-incubated with TAMRA-Aβ1-42 when added to Au-SOA-PC-HT has the same 0.11 change in anisotropy (FIG. 18). Possible explanations for the additional increase in r include metal ion reassembly of peptides bound to the membrane or bridging interactions between the Au-SOA-PC-HT-TAMRA-Aβ1-42 species. Alternatively, metals could arrange TAMRA-Aβ1-42 within the membrane bilayer to slow its molecular rotation. […]

T1 sequence (P05067 672-713): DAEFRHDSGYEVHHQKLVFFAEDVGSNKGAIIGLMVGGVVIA

TAMRA-Aβ1-42: fluorophore-labeled Aβ was tested, and the “steady-state anisotropy ravg of TAMRA-Aβ1-42” value was 0.12.
